Experimental data: publication PMC4402543 (Nucleic Acids Research, 2015)

Target: full-length His-PCAF fusion protein (human, UniProt Q92831 1-832)
Assay: pull-down

Chain of full-length His-PCAF fusion protein (Q92831 whole entry, the tested form may be a part): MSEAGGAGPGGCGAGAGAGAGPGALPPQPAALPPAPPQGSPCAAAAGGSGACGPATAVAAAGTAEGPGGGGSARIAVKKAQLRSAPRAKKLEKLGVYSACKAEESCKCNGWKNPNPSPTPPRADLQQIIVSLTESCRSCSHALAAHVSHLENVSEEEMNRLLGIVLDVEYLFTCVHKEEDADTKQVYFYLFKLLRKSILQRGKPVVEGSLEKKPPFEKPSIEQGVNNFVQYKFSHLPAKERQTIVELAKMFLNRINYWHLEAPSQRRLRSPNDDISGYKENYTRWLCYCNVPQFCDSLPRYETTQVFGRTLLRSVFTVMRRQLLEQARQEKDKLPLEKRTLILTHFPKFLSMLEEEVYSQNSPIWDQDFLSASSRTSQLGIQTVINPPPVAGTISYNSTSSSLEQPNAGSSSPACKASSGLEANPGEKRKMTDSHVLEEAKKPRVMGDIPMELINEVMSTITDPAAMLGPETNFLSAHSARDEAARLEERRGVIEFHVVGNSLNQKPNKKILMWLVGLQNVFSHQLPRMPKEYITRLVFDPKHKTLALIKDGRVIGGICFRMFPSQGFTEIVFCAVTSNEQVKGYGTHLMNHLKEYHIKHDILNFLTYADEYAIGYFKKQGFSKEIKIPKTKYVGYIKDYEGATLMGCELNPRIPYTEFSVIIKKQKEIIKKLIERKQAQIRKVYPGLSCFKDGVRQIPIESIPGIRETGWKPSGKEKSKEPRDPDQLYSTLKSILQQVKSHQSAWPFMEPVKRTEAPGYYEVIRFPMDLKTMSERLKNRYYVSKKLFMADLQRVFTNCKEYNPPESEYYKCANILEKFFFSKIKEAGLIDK

B1: GST-EZH2 SET domain (610-746) (domain or fragment)
chain: not shown
binding result: binds

B2: GST-EZH2 N-terminal domain (1-522) (domain or fragment)
chain: MGQTGKKSEKGPVCWRKRVKSEYMRLRQLKRFRRADEVKSMFSSNRQKILERTEILNQEWKQRRIQPVHILTSVSSLRGTRECSVTSDLDFPTQVIPLKTLNAVASVPIMYSWSPLQQNFMVEDETVLHNIPYMGDEVLDQDGTFIEELIKNYDGKVHGDRECGFINDEIFVELVNALGQYNDDDDDDDGDDPEEREEKQKDLEDHRDDKESRPPRKFPSDKIFEAISSMFPDKGTAEELKEKYKELTEQQLPGALPPECTPNIDGPNAKSVQREQSLHSFHTLFCRRCFKYDCFLHPFHATPNTYKRKNTETALDNKPCGPQCYQHLEGAKEFAAALTAERIKTPPKRPGGRRRGRLPNNSSRPSTPTINVLESKDTDSDREAGTETGGENNDKEEEEKKDETSSSSEANSRCQTPIKMKPNIEPPENVEWSGAEASMFRVLIGTYYDNFCAIARLIGTKTCRQVYEFRVKESSIIAPAPAEDVDTPPRKKKRKHRLWAAHCRKIQLKKDGSSNHVYNYQP
binding result: binds
